The values that follow come from US20140295452A1 (PIERRE FABRE MEDICAMENT, published 2014).

Test [1] addresses recombinant human c-Met-Fc protein (R&D Systems, cat. 358MT) (human) (UniProt P08581). Put plainly: displacement of [125I]-HGF (200 pM) from c-Met-Fc immobilized on protein A FlashPlate.
Test [2] deals with T1, human c-Met receptor, native, on tumor cells and tumor tissue (human, UniProt P08581 25-1390).
T1 construct: whole, on cells; Endogenous c-Met of human tumor cell lines, U87-MG xenografts and human tumor tissues; also called native c-Met; native receptor on tumor cells
T1 sequence (P08581 25-1390): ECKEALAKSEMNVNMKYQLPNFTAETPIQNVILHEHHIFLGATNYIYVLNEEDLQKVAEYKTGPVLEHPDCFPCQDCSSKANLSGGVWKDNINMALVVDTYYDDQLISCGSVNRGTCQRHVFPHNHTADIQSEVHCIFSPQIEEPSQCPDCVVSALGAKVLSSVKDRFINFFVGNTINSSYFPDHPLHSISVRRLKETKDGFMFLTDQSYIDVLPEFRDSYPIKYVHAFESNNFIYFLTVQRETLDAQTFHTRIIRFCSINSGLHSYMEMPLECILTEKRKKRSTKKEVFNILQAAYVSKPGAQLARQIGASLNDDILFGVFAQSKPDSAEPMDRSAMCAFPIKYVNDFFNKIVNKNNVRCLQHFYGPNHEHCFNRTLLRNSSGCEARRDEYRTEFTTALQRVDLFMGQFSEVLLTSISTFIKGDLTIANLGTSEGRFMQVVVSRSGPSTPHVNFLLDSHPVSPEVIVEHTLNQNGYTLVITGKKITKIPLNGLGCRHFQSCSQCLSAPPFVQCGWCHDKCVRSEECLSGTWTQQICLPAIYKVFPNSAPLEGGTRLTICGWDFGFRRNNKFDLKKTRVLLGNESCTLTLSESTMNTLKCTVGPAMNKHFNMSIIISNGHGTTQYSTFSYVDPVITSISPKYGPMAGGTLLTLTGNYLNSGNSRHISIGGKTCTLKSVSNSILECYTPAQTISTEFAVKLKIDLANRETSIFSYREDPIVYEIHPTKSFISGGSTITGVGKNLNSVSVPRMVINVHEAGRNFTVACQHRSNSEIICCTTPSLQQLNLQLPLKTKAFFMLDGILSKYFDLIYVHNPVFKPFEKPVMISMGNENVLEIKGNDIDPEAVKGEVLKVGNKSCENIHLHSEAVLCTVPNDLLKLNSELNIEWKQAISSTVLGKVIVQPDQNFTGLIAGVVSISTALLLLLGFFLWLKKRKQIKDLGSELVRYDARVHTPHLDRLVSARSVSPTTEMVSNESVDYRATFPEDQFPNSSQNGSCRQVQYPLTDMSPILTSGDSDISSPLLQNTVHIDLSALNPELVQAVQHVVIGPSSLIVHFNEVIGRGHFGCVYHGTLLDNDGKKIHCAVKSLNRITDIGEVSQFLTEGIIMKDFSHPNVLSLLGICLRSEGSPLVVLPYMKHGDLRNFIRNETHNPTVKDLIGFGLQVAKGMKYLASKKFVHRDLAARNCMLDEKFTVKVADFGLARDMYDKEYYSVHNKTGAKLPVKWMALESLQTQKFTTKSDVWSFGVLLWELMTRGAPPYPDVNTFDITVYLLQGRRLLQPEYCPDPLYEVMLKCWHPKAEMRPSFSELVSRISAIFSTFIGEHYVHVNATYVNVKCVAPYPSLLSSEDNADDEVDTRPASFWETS
Nature of the test: IHC on paraffin-embedded human breast and stomach tumor tissues.

The target of test [3] is T2, recombinant human c-Met-Fc protein (R&D Systems, cat. 358MT) (human, UniProt P08581 25-932).
T2 construct: extracellular domain; Bought reagent (R&D Systems 358MT / 358-MT/CF); also called rh c-Met-Fc; HGF-R/Fc chimera protein; not shown: Fc part; polyhistidine tag implied by capture on an anti-polyhistidine Mab; not described
T2 sequence (P08581 25-932): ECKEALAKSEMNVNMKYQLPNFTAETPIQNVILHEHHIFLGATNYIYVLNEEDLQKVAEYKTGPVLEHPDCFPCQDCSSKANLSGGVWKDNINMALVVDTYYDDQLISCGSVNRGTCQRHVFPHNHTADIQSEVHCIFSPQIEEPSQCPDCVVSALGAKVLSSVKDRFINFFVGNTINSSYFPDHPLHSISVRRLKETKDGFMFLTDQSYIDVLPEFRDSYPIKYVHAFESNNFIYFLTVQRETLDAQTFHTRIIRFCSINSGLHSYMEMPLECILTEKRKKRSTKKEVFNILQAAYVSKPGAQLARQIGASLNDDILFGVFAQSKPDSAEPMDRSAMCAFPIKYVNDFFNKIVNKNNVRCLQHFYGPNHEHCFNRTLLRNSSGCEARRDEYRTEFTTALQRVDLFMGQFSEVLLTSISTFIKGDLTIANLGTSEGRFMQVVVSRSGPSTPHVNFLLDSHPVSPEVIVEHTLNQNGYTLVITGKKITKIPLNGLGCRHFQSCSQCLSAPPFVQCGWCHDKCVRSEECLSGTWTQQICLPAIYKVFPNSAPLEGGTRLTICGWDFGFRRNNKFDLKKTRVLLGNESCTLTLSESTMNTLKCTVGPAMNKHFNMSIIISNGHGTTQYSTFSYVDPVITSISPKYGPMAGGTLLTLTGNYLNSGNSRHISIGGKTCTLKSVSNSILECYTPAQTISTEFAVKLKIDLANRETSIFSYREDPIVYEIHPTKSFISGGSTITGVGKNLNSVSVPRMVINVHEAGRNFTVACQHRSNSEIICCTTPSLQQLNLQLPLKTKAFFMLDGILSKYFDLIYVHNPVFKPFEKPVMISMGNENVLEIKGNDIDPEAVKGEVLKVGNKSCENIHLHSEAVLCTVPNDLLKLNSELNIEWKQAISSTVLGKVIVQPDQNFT
Nature of the test: Biacore, c-Met-Fc captured by anti-polyhistidine Mab, 224D10 injected second at 20 µg/ml.

Test [4] concerns the target T2, recombinant human c-Met-Fc protein (R&D …). Put plainly: displacement of [125I]-HGF (200 pM) from c-Met-Fc immobilized on protein A FlashPlate.

recombinant human c-Met-Fc protein (R&D Systems, cat. 358MT) (human), sequence (P08581 25-932): as above

“5D5 anti-c-Met Mab (Genentech, hybridoma at the ATCC) (antibody)”: in test [1], the IC50 stood at 4.4 nM.

B1: murine 224D10 monoclonal antibody (antibody, V domains shown)
VH: DLQLQESGPGLVKPSQSLSLTCSVTGYSITSAYFWSWIRQFPGNKLEWMGFINYDGTNNYNPSLKNRISITRDTSKNQFFLRLNSVTTDDTATYYCTRDRTFAYWGQGTLVTVSA
VL: DIVLTQSPATLSVTPGDRVSLSCRASQRIYNYLHWYQQKSHESPRLLIKYASQSISGIPSRFSGSGSGTDFILTINSVETEDFGMYFCQQSNSWPLTFGAGTKLELR
notes: Whole murine monoclonal antibody secreted by hybridoma CNCM I-3949; a murine IgG1 (9G4) served as its isotype control; also called m224D10; 224D10 Mab
Consider B1, for which the binding result in test [2] and in test [3] was “binds” throughout.

B2: 11E1 anti-c-Met Mab (antibody, V domains shown)
VH: QVQLQQSGAELAKPGASVKMSCKASGYTFTSYWMNWVKQRPGQGLEWIGYINPTTGSTDYNQKLKDKATLTADKSSNTAYMQLSSLTSEDSAVYYCAIGGYGSWFAYWGQGTLVTVSA
VL: QIVLTQSPAIMSASPGEKVTLTCSASSSVSSTYLYWYQQKPGSSPKLWIYTTSILASGVPARFSGSGSGTSYSLTISSMETEDAASYFCHQWSSYPFTFGSGTKLDIK
As for B2, the IC50 in test [4] turned out to be 42 nM.
